For 3 substances, Kd and EC50 results are on record in patent publication US20190233517A1.

pEC50, pKd: −log10 of the molar value.

A word on the pKd: it is the Kd on a negative log10 scale, so that one unit is a factor of ten. A higher pKd goes with a low Kd. One may read the pEC50 as the EC50 on a negative log10 scale, so that one unit is a factor of ten.

One test has as its target HER3 (UniProt P21860). Description: kinetic binding data, method not stated.
The target in a further test is Raji (human) (UniProt P11836). Description: FACS binding; Raji cells.
Sequence of Raji (human) (P11836 whole entry): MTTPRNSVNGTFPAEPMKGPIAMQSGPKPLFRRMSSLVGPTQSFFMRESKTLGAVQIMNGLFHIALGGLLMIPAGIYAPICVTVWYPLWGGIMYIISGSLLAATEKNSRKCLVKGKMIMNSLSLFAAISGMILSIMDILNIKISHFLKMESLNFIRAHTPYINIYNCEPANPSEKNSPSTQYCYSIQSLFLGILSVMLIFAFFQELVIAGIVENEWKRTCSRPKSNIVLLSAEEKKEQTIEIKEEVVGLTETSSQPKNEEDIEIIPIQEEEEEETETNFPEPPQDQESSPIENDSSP
Another test has as its target Daudi. Description: FACS binding; Daudi cells.

The substance “FIT019a-Ig HER3 (patritumab)/EGFR (Panitumumab) (bispecific antibody)” showed a pKd with HER3 of 10.49.

In the test with Raji (human), Epratuzuman/ Ofatumumab (1:1) showed a pEC50 of 8.49.

The substance Epratuzumab/ Ofatumumab (1:1) showed a pEC50 with Daudi of 8.16.
